Key:
human CD40-Avi-tag = target: T1, human CD40-Avi-tag (human, UniProt P25942 21-193); assay: SPR (Biacore 8K, 25 °C), hCD40 immobilized, 1:1 binding model
T1 construct: Immobilized on NA-coated CM5 chips at about 200 RU; not shown: Avi-tag
Procedure: (§1) To evaluate binding of the bispecific binding proteins disclosed herein, surface plasmon resonance (SPR) studies were performed on a Biacore 8k instrument (GE Healthcare) at 25° C. The binding of the protein analytes was tested in buffer: 10 mM HEPES, 150 mM NaCl, 3 mM EDTA, 0.05% TWEEN20, pH7.4 on surfaces consisting of a low density (˜200RU) of human CD40-Avi-tag or human CD80-Avi-tag which had been immobilized on NA-coated CM5 chips using standard protocol. The protein analytes were injected in a titration series at a flowrate of 50 ul/min. The data were analyzed using the Biacore Insight Evaluation software. An 1:1 binding kinetic and affinity models are applied for experimental data analysis. The value for the equilibrium dissociation constant (KD) was calculated as the ratio of the rate constants Kd/Ka.

human CD80-Avi-tag = target: T2, human CD80-Avi-tag (human, UniProt P33681 35-242); assay: SPR (Biacore 8K, 25 °C), hCD80 immobilized, 1:1 binding model
T2 construct: also called immobilized human CD80; not shown: Avi-tag
T2 sequence (looked up): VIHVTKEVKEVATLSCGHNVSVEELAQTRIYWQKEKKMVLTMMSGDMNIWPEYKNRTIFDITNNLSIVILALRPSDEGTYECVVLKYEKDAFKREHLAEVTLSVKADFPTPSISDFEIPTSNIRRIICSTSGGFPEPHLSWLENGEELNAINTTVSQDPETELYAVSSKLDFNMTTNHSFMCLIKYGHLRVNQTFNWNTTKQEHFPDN
Procedure: as §1

T1 sequence (P25942 21-193 limits assumed): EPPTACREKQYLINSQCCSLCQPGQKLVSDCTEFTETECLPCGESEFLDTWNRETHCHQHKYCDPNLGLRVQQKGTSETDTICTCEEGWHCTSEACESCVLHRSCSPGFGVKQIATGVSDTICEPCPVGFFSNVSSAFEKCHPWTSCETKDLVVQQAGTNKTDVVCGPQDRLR

B1: α-CD40/CTLA-4 bispecific protein (SEQ ID NO: 2 with SEQ ID NO: 11) (bispecific antibody, human IgG4 S228P, kappa)
heavy: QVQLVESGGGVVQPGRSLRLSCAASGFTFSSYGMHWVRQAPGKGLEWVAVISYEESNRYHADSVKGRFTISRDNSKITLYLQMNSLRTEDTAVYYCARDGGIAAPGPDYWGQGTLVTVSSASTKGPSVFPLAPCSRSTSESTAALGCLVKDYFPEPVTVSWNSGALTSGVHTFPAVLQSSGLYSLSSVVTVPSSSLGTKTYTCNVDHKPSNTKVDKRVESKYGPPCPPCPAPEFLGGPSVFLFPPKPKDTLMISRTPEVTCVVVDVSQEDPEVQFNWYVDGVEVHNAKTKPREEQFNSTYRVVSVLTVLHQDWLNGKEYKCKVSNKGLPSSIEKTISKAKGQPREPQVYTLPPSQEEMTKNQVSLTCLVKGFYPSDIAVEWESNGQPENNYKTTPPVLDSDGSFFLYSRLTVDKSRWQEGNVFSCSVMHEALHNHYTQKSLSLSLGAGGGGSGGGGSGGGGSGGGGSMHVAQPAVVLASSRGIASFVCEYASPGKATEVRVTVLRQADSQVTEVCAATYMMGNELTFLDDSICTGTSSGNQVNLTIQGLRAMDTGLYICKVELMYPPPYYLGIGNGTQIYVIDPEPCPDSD
light: DIVMTQSPLSLTVTPGEPASISCRSSQSLLYSNGYNYLDWYLQKPGQSPQVLISLGSNRASGVPDRFSGSGSGTDFTLKISRVEAEDVGVYYCMQARQTPFTFGPGTKVDIRRTVAAPSVFIFPPSDEQLKSGTASVVCLLNNFYPREAKVQWKVDNALQSGNSQESVTEQDSKDSTYSLSSTLTLSKADYEKHKVYACEVTHQGLSSPVTKSFNRGEC
notes: also called Duotein-B; exemplary α-CD40/CTLA-4 bispecific protein
- Kd (human CD40-Avi-tag): 0.325 nM
- koff (human CD40-Avi-tag): 9.84e-05 s⁻¹
- kon (human CD40-Avi-tag): 303000 M⁻¹ s⁻¹
- Kd (human CD80-Avi-tag): 154 nM
- koff (human CD80-Avi-tag): 0.12 s⁻¹
- kon (human CD80-Avi-tag): 780000 M⁻¹ s⁻¹

— patent publication US20240190978A1 (CSBIOASSET, published 2024)
